Values of other authors, collected in article PMC5427221.

Target: C3b C3b (Homo sapiens) (UniProt P01024)
Chain of UniProt P01024 (P01024 566-670): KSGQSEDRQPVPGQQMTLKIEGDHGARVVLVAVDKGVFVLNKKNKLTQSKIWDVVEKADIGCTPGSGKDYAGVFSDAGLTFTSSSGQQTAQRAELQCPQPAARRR

Kd: 10 µM
Substance: Factor H FH[1-4] (from UniProt P08603)
